The values below are quoted from earlier work in article PMC5580235.

Where two headings read alike, the source gives them in different places.

The target of data set [1] is ICAM-1 (Homo sapiens) (UniProt P05362).
For data set [2] the target is unchanged. This is another data set of the same source.
Data set [3] shares this target. The source holds these as a separate data set.

Chain of ICAM-1 (Homo sapiens) (P05362 28-480): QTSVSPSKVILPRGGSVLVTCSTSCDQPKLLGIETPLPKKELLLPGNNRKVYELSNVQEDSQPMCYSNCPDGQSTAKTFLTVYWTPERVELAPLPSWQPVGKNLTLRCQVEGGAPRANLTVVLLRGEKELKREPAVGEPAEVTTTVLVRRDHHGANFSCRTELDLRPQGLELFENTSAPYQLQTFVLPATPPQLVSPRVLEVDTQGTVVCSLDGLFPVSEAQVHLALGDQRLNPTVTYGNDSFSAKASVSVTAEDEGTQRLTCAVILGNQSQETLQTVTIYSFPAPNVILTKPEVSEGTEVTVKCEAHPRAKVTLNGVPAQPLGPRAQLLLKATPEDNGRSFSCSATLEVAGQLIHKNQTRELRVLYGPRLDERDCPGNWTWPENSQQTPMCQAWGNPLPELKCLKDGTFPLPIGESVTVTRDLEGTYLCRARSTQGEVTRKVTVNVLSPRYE
Chain of LFA-1 (high affinity form) (P20701 26-1090): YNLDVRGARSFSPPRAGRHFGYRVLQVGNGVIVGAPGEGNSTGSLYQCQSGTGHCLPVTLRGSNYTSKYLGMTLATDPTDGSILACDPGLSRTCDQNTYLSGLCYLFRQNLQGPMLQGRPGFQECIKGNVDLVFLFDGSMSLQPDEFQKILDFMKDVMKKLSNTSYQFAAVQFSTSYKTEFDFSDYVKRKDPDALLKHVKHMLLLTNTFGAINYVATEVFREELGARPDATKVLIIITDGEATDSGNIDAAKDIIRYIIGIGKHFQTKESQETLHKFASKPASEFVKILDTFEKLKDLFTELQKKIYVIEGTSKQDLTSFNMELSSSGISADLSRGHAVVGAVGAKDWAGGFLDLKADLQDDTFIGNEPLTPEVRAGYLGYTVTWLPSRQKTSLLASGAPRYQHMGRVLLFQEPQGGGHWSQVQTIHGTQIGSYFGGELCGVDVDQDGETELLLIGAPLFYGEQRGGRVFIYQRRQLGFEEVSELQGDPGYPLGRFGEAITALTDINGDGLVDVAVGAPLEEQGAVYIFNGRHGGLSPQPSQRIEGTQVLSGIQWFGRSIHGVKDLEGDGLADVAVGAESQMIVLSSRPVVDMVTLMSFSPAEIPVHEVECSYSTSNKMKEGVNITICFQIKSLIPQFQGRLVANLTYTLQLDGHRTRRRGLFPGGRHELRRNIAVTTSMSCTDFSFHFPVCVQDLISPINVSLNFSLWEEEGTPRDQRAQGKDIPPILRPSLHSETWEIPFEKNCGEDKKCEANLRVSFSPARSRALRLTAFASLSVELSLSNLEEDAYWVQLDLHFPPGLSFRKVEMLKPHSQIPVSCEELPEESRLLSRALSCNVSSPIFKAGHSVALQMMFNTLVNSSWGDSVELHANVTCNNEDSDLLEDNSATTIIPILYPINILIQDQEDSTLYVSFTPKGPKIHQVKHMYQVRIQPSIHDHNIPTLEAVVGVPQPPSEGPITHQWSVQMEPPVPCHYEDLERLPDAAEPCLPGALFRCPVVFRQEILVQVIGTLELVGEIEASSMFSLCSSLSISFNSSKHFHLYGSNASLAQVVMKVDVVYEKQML
Chain of LFA-1 (high affinity form) (P05107 23-700, further chain): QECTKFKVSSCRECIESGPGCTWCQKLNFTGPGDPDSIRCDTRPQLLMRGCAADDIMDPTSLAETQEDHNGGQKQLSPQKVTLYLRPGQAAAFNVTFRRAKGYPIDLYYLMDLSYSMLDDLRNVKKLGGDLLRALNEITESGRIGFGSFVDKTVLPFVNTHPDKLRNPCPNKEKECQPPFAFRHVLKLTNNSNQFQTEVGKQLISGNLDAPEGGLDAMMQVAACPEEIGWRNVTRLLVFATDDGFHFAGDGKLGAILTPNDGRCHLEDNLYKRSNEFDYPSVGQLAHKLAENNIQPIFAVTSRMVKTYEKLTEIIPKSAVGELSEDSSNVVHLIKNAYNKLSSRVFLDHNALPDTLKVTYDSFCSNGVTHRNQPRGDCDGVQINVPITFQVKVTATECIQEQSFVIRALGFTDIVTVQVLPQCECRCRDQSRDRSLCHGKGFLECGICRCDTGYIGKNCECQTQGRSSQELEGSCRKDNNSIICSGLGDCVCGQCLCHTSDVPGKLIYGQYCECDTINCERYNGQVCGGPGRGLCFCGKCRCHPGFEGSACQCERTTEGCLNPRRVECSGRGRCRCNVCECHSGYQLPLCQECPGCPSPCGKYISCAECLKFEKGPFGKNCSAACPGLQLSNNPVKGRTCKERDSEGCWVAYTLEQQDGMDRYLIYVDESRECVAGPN
Chain of LFA-1 (intermediate affinity form) (P20701 26-1090): as the sequence (P20701 26-1090) above
Chain of LFA-1 (intermediate affinity form) (P05107 23-700, further chain): as the sequence (P05107 23-700, further chain) above
Chain of LFA-1 (low affinity form) (P20701 26-1090): as the sequence (P20701 26-1090) above
Chain of LFA-1 (low affinity form) (P05107 23-700, further chain): as the sequence (P05107 23-700, further chain) above

Consider “LFA-1 (high affinity form) (from UniProt P20701)”, for which the equilibrium dissociation constant (Kd) with ICAM-1 (Homo sapiens) [1] was 0.15 µM.
Consider “LFA-1 (intermediate affinity form) (from UniProt P20701)”, for which the dissociation constant (Kd) in the data set with ICAM-1 (Homo sapiens) [2] was 15 µM.
Take “LFA-1 (low affinity form) (from UniProt P20701)”: in the data set with ICAM-1 (Homo sapiens) [3], the Kd is 1500 µM.

The Kd is a measure of binding affinity in units of concentration.
